According to US20200069764A1 (Pfizer, published 2020):

Biological target: EDB+ FN on WI38-VA13 cells (human, UniProt P02751 32-2477)
Test: cell-based or functional assay

Sequence of EDB+ FN on WI38-VA13 cells (P02751 32-2477): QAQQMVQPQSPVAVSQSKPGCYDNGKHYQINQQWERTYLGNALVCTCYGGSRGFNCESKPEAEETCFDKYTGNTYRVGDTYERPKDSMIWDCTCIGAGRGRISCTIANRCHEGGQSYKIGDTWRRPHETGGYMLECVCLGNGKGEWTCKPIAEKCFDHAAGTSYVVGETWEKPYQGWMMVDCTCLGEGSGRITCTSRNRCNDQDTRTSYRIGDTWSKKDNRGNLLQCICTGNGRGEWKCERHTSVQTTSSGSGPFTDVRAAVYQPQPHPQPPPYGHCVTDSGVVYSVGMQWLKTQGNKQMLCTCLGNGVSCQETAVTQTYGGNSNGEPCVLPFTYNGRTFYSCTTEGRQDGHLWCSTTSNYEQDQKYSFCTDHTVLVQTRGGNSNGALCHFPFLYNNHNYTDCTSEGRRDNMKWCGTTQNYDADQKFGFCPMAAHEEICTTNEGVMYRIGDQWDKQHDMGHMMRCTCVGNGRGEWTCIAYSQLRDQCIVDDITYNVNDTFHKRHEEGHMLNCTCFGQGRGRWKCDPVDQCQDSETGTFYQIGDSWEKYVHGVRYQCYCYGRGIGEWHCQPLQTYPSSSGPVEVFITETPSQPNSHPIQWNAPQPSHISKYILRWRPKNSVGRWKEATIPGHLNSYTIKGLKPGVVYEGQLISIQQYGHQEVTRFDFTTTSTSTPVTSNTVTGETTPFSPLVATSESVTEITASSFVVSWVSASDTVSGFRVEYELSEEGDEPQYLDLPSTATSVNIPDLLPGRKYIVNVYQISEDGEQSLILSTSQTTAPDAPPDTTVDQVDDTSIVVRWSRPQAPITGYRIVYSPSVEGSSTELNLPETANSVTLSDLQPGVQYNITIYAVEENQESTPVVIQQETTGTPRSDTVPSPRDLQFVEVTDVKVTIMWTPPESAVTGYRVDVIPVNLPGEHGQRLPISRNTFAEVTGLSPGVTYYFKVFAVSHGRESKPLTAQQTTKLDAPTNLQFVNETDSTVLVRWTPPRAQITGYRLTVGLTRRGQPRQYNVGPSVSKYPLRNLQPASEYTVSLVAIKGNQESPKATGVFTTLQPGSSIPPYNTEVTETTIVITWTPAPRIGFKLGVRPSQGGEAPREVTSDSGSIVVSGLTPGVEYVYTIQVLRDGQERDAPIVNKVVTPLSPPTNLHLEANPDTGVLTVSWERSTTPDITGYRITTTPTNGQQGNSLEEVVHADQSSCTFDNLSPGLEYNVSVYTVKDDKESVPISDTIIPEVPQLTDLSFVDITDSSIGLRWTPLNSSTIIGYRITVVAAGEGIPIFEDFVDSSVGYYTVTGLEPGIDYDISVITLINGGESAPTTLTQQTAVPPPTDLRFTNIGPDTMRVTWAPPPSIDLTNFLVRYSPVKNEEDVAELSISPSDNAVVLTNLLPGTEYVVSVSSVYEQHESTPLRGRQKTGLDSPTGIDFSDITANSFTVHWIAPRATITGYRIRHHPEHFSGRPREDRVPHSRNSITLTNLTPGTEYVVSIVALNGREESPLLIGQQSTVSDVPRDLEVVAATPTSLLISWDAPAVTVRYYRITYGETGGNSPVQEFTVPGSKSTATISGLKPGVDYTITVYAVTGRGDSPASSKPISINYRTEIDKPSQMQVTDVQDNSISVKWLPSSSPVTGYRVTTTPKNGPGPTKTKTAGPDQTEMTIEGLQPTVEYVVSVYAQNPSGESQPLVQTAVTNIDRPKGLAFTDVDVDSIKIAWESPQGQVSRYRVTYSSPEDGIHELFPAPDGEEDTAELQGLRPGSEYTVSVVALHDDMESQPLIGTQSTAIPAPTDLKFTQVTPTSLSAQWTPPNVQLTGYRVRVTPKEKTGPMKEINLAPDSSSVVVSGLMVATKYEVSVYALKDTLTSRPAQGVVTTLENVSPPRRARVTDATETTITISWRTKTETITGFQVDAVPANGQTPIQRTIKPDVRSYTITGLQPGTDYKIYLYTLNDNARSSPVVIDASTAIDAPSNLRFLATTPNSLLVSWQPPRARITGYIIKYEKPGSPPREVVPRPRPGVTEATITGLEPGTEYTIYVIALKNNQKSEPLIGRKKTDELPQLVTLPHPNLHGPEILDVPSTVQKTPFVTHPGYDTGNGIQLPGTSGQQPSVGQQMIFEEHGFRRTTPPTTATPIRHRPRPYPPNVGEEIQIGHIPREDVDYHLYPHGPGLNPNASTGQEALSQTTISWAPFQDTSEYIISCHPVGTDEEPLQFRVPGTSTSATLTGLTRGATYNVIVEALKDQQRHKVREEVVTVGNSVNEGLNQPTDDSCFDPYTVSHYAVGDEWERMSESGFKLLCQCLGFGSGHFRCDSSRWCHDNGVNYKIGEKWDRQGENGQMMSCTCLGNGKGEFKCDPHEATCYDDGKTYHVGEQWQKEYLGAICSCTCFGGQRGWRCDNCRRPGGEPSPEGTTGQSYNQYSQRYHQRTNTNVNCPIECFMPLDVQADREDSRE

Binder | Avg IC50 (ng/ml of antibody), in vitro cytotoxicity on WI38-VA13 cells [ng/mL]
EDB-L19-diS-DM1 (antibody, human IgG1, kappa) heavy: not shown light: EIVLTQSPGTLSLSPGERATLSCRASQSVSSSFLAWYQQKPGQAPRLLIYYASSRATGIPDRFSGSGSGTDFTLTISRLEPEDFAVYYCQQTGRIPPTFGQGTKVEIKRTVAAPSVFIFPPSDEQLKSGTASVVCLLNNFYPREAKVQWKVDNALQSGNSQESVTEQDSKDSTYSLSSTLTLSKADYEKHKVYACEVTHQGLSSPVTKSFNRGEC | 268
EDB-L19-diS-C2OCO-1569 (antibody, human IgG1, kappa) heavy: not shown light: EIVLTQSPGTLSLSPGERATLSCRASQSVSSSFLAWYQQKPGQAPRLLIYYASSRATGIPDRFSGSGSGTDFTLTISRLEPEDFAVYYCQQTGRIPPTFGQGTKVEIKRTVAAPSVFIFPPSDEQLKSGTASVVCLLNNFYPREAKVQWKVDNALQSGNSQESVTEQDSKDSTYSLSSTLTLSKADYEKHKVYACEVTHQGLSSPVTKSFNRGEC | 21
EDB-L19-diS-4574 (antibody, human IgG1, kappa) heavy: not shown light: EIVLTQSPGTLSLSPGERATLSCRASQSVSSSFLAWYQQKPGQAPRLLIYYASSRATGIPDRFSGSGSGTDFTLTISRLEPEDFAVYYCQQTGRIPPTFGQGTKVEIKRTVAAPSVFIFPPSDEQLKSGTASVVCLLNNFYPREAKVQWKVDNALQSGNSQESVTEQDSKDSTYSLSSTLTLSKADYEKHKVYACEVTHQGLSSPVTKSFNRGEC | 487
